# According to paper PMC8594541:
# B1: 1-deoxy-D-xylulose 5-phosphate reductoisomerase (KpIspC) (Klebsiella pneumoniae subsp. pneumoniae MGH 78578) (protein)
# chain: MKQLTVLGSTGSIGCSTLDVVRHNPGRFSVAALVAGKNVDRMVEQCLEFTPRYAVMDDAQSAERLRTRLHEHGSRTEVLSGQQAAAEVAALDEVDQVMAAIVGAAGLVPTLAAIRAGKTVLLANKESLVTCGRLFMEAVQQSGARLLPVDSEHNAIFQSMPETIQQHLGYADLAQNGVSSILLTGSGGPFRETAVAELAAMTPDQACRHPNWSMGRKISVDSATMMNKGLEYIEARWLFNASAQQMEVLIHPQSVIHSMVRYQDGSVLAQLGEPDMRTPIAHTMGWPQRLNSGVKPLDFCQLSNLSFSAPDYTRYPCLKLAMDAFDVGQAATTTLNAANEESVAAFLHGDIRFTDIAAVNLAVLDKMDLQEPQSIDDVLVIDAEARAIAHQQLQRLVAQA
# B2: 1-deoxy-D-xylulose 5-phosphate reductoisomerase (AbIspC) (Acinetobacter baumannii AB307-0294) (protein)
# chain: MTQSVCILGVTGSIGRSTLKILGQHPDKYSVFAVSAHSRISELVEICKQFRPKVVVVPEQKIAELKTLFAQQNISDIDVLAGQEGLVDIASHTDVDIVMAAIVGAAGLLPTLAAVKAGKRVLLANKEALVMSGEIMMQAARDHQALLLPVDSEHNAIFQSLPHNYLQADRTGQPQLGVSKILLTASGGPFLNHSLEQLVHVTPQQACKHPNWSMGQKISVDSATLMNKGLELIEACHLFSISEHFVTVVVHPQSIIHSMVQYVDGSTLAQMGNPDMCTPIAHALAWPERLQTNVPALDLFEYSQLNFQAPDTQKFPALNLARQAMRAGGLAPTILNAANEIAVEAFLMERIGFTSIPQVVEHTLEKLENAAAESIECILDKDKVARSVAQQYISSIGG
# Tests used:
# [1] = substrate: CC(=O)[C@@H](O)[C@H](O)COP(=O)(O)O; assay: purified protein; type: biochemical, Klebsiella pneumoniae; conditions: NADPH, Mg2+
# [2] = substrate: CC(=O)[C@@H](O)[C@H](O)COP(=O)(O)O; assay: purified protein; type: biochemical, Acinetobacter baumannii; conditions: NADPH, Mg2+
Protein,Km [1] [µM],kcat [1] [s⁻¹],Km [2] [µM],kcat [2] [s⁻¹]
B1,155.5,2.21 ± 0.06,–,–
B2,–,–,127.6,1.92 ± 0.03
